Entries after “also recorded” stand apart in the source; their conditions may differ.
Tests used:
[1] = system: growth-arrested HepG2 cells; experiment: Pooled DTS screen in growth-arrested HepG2 cells; mRNA abundance by RNA-seq of UMIs; type: cell-based
Description: Library cloning. Pooled DTS libraries were designed as described above. To ensure the highest quality library production of oligos for cloning, oligo lengths were standardized to 300 bp. To accommodate this standardized length the core sequence of each DTS was embedded center-justified in a neutral fragment of random DNA sequence. The flanks of each oligo contained unique golden gate restriction enzyme digestion sites (Bsal) for cloning of double stranded DNA into screening vectors. […] The proper UMI/DTS barcode correlation (termed here the “library registry”) was determined via excision of the hTTR/eGFP fragments, re-ligation of the vector, PCR amplification of the corresponding proximal DTS and UMI regions, and sequencing on an Illumina Miseq (2×150 bp reads). […]
Quantification of mRNA abundance from pooled DTS screens. […] The PCR amplified cDNA was then library prepped (NEBNext library prep for Illumina) and sequenced on an Illumina Miseq (2×150 bp reads). Counts for each UMI were translated into the corresponding DTS using the UMI/Barcode registry and changes in abundance of each DTS were statistically analyzed using a custom R script. The log 2 fold change is calculated by comparing the RNA level in the pool vs. its expected abundance, which is derived from the abundance in the corresponding input DNA pool. […]

[2] = system: growth-arrested HepG2 cells; experiment: Arrayed DTS screen in growth-arrested HepG2 cells; GFP intensity by live-cell imaging; type: cell-based; settings: 24 h post-transfection
Description: DNA construct design. Each DTS was constructed in pentameric repeat using a 15 bp spacer between each TFBS. The DTS was appended just 5′ to the promoter, effectively in a putative enhancer region. Various promoters were employed in these constructs, including CBh (a variant of the CAG promoter) and TTR. Several reporter genes were employed in these constructs, including enhanced Green Fluorescent Protein (eGFP). The polyadenylation (polyA) signal is a BGH-PolyA sequence. For pooled screening, unique molecular identifiers (UMIs; also known as barcodes) were used to distinguish between DNA constructs in a pool, and the UMIs were appended to the 3′UTR immediately downstream of the stop codon of eGFP, just preceding the BGH-PolyA sequence.
Cell culture. HepG2 cells were plated into a 384-well plate and grown for 48 hours to achieve confluency. Cell media was removed and replaced with culture media supplemented with Aphidicolin (1 uM) using EL406 automated plate washer and dispenser, then cells were transfected with DTS containing 17.5 ng plasmids using Lipofectamine 3000 without supplement. Expression of GFP was monitored using a Biotek Cytation 5 cell imaging reader over 24 hours to evaluate DTS activity. Total GFP per well was calculated and averaged over 4 well replicates.
pDNAs containing various DTSs (Table 12) were transfected individually into growth-arrested HepG2 cells. Cell growth was inhibited to prevent dissolution of the nuclear envelope. GFP expression was quantified over a period of 24 h post-transfection by measuring GFP intensity using quantitative live-cell imaging. Statistical analysis and hierarchical clustering methods were used to easily differentiate strong DTSs from weak DTSs in a heatmap (FIG. 5A). […] DTS.203: CREB1, PPARA, ONECUT1, HNF4A, PPARA. DTS.233: HNF1A, NR113, PPARA, HNF1A, PPARA. DTS.276: FOXA1, HNF4A, HNF1A, HNF4A, HNF1A.
For the arrayed screen, pDNAs containing various DTSs were transfected individually into growth-arrested HepG2 cells. For the pooled screen, pDNAs containing various DTSs were pooled together and transfected as a pool into growth-arrested HepG2 cells. Cell growth was inhibited to prevent dissolution of the nuclear envelope, which improves the accuracy of measuring DTS activity related to nuclear translocation. For the arrayed screen, GFP protein expression was quantified 24 h post-transfection by measuring GFP intensity using quantitative live-cell imaging. For the pooled screen, mRNA abundance for each DTS variant was determined using RNA-seq by deconvoluting the read counts for each UMI. A strong correlation between protein expression in the arrayed screen and mRNA expression in the pooled screen was observed (FIG. 6). […] Pooled screening can thus be used to quickly and reliably identify strong DTSs.

B1: DTS.233: combinatorial DTS: HNF1A, NR1I3, PPARA, HNF1A, PPARA binding sites (nucleic acid)
DNA: GGTTAATAATTAACAGATTACTACTGATACCTCTTCTCTGTGGGTGACCAGCGTCCTAAGATTACTACTGATAAACTAGGTCAAAGGTCAAGATTACTACTGATAAGTATGGTTAATGATCTACAGAGATTACTACTGATACAAAACTAGGTCAAAGGTCA
[1]
  mRNA abundance in pooled screen relative to Spacer negative control: robust increases
[2]
  GFP intensity / gene expression in arrayed screen compared to Spacer negative control: performed equivalently or better than NFKB; also recorded: robust increases
